Test in all cases: biochemical
Format in all cases: biochemical

Test [1] concerns the target 266 human kinases (Homo sapiens, UniProt Q9H422). As to conditions: HIPK3(h); 100 μM. A digest of the protocol: (§1)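 Inhibition was judged from reduced transfer of labelled phosphate from ATP to a positively charged substrate, which was captured on a negatively charged membrane and quantified by scintillation counting against a 100% activity control.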
Test [2] addresses 266 human kinases (Homo sapiens, UniProt Q15418). As to conditions: Rsk1(h); 100 μM. In outline: as §1
The target in test [3] is 266 human kinases (Homo sapiens, UniProt P00519, M351T). The note with it: Abl(M351T)(h); 100 μM. A digest of the protocol: as §1
Test [4] has as its target 266 human kinases (Homo sapiens, UniProt P00519, Q252H). The note with it: Abl(Q252H)(h); 100 μM. A digest of the protocol:
as §1

Test [5] addresses 266 human kinases (Homo sapiens, UniProt P35916). The note with it: Flt4(h); 100 μM. In outline:
as §1

Test [6] has as its target 266 human kinases (Homo sapiens, UniProt Q8N4C8). The note with it: MINK(h); 100 μM. In outline: as §1
For test [7], the target named is 266 human kinases (Homo sapiens, UniProt P28482). As to conditions: MAPK2(h); 100 μM. In outline:
as §1

Test [8] concerns the target T1, 266 human kinases (Homo sapiens, UniProt Q7L7X3).
T1 sequence (Q7L7X3 1-1001): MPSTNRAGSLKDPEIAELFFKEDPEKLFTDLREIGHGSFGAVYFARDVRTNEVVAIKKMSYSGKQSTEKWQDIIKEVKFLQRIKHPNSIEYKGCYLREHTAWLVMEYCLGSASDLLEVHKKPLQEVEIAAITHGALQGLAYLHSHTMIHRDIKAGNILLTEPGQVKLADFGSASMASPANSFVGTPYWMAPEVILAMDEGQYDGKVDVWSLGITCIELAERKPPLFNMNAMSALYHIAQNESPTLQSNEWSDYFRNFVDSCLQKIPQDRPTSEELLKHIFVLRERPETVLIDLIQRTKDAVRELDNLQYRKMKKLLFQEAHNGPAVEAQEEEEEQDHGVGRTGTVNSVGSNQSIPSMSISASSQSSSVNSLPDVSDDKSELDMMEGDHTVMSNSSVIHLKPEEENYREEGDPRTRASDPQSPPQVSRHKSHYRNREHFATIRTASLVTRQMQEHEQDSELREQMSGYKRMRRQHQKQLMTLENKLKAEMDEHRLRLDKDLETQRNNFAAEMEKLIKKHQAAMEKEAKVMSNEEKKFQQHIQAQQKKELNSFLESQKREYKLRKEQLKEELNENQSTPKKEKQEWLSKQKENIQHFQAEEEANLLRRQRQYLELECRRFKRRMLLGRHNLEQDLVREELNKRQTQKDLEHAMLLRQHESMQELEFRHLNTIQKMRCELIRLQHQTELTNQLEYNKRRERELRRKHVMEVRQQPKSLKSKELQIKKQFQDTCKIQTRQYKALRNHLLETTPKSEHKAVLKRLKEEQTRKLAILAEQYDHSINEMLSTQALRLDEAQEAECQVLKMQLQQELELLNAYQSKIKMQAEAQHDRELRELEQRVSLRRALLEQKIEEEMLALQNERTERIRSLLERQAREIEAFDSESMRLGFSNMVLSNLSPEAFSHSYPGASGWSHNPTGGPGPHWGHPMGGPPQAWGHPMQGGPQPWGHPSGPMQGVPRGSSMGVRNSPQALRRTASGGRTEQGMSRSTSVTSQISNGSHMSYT
As to conditions: TAO1(h); 100 μM. A digest of the protocol:
as §1

Test [9] deals with T2, 266 human kinases (Homo sapiens, UniProt P52333).
T2 sequence (P52333 1-1124): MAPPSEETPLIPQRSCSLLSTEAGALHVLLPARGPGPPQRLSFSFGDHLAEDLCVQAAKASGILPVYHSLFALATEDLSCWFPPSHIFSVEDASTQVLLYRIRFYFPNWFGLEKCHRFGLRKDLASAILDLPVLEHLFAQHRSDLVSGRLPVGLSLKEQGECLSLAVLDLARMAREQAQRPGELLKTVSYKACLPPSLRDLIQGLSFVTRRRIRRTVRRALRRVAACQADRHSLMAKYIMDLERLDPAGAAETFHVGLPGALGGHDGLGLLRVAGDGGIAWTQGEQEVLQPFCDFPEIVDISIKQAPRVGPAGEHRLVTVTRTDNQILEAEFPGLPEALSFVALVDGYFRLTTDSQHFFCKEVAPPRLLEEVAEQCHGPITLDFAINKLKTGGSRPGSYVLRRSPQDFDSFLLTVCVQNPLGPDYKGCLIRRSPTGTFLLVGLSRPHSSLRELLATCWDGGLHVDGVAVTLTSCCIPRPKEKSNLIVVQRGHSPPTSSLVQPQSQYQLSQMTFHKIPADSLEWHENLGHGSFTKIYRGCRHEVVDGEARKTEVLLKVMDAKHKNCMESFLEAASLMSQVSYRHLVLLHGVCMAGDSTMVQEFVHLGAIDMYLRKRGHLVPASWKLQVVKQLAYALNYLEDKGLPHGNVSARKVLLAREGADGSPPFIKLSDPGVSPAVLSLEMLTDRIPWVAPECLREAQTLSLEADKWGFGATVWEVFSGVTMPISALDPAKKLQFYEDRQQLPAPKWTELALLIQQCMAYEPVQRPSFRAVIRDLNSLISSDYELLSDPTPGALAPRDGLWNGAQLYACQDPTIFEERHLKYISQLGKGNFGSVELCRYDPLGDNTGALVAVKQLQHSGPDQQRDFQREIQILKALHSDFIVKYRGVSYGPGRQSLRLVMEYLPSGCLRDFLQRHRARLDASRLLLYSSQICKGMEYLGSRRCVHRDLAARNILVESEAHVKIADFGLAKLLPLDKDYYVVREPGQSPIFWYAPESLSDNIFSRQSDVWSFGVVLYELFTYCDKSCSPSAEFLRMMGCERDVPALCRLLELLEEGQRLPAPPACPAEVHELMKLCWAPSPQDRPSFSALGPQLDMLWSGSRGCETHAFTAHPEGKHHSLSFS
As to conditions: JAK3(h); 100 μM. A digest of the protocol: as §1

The target in test [10] is 266 human kinases (Homo sapiens, UniProt O43318). The note with it: TAK1(h); 100 μM. In outline: as §1

The results in this text go back to patent publication US20140072613A1, “Compositions and Methods for Treating Cutaneous Scarring” (priority 2012, published 2014).

Sequence of 266 human kinases (Homo sapiens, UniProt Q8N4C8) (Q8N4C8 whole entry): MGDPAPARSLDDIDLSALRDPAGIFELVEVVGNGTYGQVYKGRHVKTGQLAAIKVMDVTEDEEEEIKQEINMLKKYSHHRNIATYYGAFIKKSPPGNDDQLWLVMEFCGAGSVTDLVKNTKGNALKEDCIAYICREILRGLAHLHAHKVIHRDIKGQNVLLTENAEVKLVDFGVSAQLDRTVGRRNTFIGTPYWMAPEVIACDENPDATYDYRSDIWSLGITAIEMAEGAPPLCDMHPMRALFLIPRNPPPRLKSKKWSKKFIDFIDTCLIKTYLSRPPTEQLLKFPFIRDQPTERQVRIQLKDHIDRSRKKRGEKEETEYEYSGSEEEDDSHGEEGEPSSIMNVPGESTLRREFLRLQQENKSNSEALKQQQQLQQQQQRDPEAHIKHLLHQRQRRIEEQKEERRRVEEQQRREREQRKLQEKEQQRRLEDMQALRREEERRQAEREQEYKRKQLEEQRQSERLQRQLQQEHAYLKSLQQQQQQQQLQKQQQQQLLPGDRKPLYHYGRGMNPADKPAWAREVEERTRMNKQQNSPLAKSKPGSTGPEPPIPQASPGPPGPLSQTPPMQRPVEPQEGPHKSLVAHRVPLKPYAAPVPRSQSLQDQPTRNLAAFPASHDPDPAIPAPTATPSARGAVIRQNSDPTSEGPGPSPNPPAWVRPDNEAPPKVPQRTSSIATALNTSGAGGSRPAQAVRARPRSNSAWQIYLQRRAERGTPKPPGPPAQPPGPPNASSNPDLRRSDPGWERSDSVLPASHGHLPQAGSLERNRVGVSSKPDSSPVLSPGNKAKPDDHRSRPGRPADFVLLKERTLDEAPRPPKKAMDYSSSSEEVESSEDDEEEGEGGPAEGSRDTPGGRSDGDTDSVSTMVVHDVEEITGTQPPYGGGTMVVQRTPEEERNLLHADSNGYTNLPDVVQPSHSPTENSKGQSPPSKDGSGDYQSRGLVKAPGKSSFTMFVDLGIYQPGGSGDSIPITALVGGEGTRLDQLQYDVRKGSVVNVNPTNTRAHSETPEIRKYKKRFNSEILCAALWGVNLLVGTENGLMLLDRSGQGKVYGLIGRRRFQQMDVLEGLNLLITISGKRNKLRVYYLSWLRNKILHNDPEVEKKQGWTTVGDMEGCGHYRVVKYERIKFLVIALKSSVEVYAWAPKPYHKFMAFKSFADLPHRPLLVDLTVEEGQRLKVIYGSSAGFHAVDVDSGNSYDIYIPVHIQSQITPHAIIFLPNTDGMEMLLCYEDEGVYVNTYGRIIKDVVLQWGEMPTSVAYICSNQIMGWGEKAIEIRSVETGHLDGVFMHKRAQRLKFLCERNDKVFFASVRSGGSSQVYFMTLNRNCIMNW
Sequence of 266 human kinases (Homo sapiens, UniProt Q9H422) (Q9H422 whole entry): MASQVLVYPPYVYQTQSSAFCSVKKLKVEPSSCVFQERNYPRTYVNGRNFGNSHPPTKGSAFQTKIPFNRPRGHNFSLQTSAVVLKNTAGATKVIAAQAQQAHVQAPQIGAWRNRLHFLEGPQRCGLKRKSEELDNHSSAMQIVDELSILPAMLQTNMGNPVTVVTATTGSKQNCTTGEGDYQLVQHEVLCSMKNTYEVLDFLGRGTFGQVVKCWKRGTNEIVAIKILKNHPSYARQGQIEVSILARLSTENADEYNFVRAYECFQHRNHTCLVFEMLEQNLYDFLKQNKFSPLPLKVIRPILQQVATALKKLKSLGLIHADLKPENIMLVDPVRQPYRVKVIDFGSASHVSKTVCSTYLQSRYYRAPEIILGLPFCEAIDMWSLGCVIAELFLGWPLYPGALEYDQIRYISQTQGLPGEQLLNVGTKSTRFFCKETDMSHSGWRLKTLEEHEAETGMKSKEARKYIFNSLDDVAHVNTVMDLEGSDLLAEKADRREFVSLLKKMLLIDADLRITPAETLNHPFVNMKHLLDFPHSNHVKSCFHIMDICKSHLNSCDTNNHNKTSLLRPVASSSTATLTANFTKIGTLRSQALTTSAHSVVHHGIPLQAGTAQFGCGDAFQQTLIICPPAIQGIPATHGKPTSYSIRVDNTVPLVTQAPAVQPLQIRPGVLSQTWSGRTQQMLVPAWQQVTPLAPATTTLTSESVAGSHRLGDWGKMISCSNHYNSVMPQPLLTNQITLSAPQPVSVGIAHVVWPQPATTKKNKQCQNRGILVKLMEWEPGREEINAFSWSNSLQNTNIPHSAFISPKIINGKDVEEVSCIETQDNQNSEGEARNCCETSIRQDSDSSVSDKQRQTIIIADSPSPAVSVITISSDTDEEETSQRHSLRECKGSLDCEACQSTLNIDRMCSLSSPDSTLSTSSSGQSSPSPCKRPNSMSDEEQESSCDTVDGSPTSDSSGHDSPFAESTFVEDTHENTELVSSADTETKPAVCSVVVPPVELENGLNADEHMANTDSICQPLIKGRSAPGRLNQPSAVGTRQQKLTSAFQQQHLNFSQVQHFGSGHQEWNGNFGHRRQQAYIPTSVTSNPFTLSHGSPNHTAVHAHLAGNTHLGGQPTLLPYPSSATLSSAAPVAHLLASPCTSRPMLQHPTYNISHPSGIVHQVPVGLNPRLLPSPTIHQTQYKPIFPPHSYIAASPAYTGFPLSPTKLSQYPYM
Sequence of 266 human kinases (Homo sapiens, UniProt P28482) (P28482 whole entry): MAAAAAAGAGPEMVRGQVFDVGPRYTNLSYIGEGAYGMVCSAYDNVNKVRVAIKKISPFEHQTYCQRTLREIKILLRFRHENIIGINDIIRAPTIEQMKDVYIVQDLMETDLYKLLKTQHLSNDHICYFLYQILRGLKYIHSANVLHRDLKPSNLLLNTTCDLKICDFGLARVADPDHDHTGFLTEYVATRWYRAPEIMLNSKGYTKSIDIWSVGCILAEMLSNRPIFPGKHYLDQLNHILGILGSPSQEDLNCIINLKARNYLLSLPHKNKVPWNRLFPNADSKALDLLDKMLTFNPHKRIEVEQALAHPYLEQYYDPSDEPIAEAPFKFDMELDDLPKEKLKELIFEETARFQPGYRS
Sequence of 266 human kinases (Homo sapiens, UniProt O43318) (O43318 whole entry): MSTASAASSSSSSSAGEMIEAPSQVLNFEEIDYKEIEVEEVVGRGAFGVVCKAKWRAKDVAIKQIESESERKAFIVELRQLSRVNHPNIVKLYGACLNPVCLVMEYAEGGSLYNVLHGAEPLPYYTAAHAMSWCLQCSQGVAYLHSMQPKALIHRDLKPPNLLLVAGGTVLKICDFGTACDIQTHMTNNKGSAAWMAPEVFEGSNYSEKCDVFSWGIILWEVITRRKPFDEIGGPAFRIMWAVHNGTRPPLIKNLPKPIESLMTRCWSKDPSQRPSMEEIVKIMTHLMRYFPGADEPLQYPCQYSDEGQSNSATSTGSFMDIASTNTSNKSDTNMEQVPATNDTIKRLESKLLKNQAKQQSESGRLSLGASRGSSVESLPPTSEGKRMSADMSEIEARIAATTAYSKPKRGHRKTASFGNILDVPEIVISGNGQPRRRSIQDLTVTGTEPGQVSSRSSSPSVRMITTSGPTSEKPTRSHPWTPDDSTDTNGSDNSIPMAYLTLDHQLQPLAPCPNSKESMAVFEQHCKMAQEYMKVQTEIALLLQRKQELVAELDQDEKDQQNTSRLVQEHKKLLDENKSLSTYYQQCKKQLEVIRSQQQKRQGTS
Sequence of 266 human kinases (Homo sapiens, UniProt Q15418) (Q15418 whole entry): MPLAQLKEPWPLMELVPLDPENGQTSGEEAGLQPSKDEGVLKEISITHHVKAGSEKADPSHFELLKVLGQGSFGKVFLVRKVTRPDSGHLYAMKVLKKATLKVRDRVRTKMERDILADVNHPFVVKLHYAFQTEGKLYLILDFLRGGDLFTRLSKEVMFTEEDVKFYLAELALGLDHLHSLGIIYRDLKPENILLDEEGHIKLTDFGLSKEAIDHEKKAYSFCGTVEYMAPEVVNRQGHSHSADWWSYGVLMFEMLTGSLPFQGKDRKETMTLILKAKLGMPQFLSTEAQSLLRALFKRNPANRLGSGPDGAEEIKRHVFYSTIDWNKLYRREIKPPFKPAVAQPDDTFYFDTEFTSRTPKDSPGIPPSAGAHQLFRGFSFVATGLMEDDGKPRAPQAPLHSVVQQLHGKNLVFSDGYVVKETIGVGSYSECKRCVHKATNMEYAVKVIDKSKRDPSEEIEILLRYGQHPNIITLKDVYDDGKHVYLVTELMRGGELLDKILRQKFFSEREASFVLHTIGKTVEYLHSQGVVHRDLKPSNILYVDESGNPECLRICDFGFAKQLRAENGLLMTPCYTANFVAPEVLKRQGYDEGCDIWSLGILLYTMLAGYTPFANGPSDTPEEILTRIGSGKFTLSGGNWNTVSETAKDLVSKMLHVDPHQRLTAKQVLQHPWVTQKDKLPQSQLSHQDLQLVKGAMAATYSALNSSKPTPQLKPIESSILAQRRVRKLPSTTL

As for “HRRIKAWLKKIKALARQLGVAA (mammal) [MMI-0500]”, the “% activity” value was determined as 85% with 266 human kinases [1]; 34% with 266 human kinases [2]; 61% in the test with 266 human kinases [3]; 40% with 266 human kinases [4]; 73% with 266 human kinases [5]; 5% with 266 human kinases [6]. The results for the “% activity” value with 266 human kinases [7], with 266 human kinases [8] and with 266 human kinases [9] were 60%, 24% and 95%, respectively.
As to “YARAAARQARAKALNRQLGVA (mammal) [MMI-0200]”, the “% activity” value with 266 human kinases [10] turned out to be 124%.
